Data taken from publication PMC11055803, “ANCUT1, a novel thermoalkaline cutinase from Aspergillus nidulans and its application on hydroxycinnamic acids lipophilization” (Biotechnology Letters, 2024).

Tested on: T1, CC(=O)Oc1ccc([N+](=O)[O-])cc1
T1 construct: native secreted enzyme purified from culture broth (ammonium sulfate, ultrafiltration, continuous elution electrophoresis, renatured with Triton X-100); 22 kDa, pI 6; no glycosylation detected
Test: Lineweaver-Burk, p-nitrophenol release
Type: biochemical, Aspergillus nidulans
Details: Tris-HCl pH 9.0, 37 °C, substrate 0.5-2 mM
Source text: Lineweaver-Burk, p-nitrophenol release on ANCUT1

For ANCUT1 (Aspergillus nidulans FGSC A4), which Km is on record?
The Km was 18.29 mM.

What about the Vmax of the same substance?
The Vmax was 58800 µM/min.

And the kcat?
The kcat was 3.67 s⁻¹.

What about the kcat/Km of the same substance?
Its kcat/Km is 201 M⁻¹ s⁻¹.
